The record followed here is PMC8053128, “Structures of Neisseria gonorrhoeae MtrR-operator complexes reveal molecular mechanisms of DNA recognition and antibiotic resistance-conferring clinical mutations”.

The target in one series is MtrR A39T (Neisseria gonorrhoeae, UniProt P39897 1-210, A39T). The series can be described thus: fluorescence polarization; FP: 20 mM Tris-HCl pH 7.5, 100 mM NaCl, 2.5% glycerol, 1 mM TCEP, 1 ug BSA, 1 ug poly(dI-dC), 1 nM 5'-fluorescein DNA; temperature not stated; MtrR concentration as dimer. The note with it: protein: recombinant; tags: N-terminal His6 removed by TEV (pMCSG7); chain copies: 2; label: 5'-fluorescein.

In a further series the target is MtrR T43A (Neisseria gonorrhoeae, UniProt P39897 1-210, T43A). The series is described as above. The note with it: protein: recombinant; tags: N-terminal His6 removed by TEV (pMCSG7); chain copies: 2; label: 5'-fluorescein.
The next series deals with MtrR G45D (Neisseria gonorrhoeae, UniProt P39897 1-210, G45D). The description is as above. The conditions noted are these: protein: recombinant; tags: N-terminal His6 removed by TEV (pMCSG7); chain copies: 2; label: 5'-fluorescein.
The next series addresses MtrR R44A (Neisseria gonorrhoeae, UniProt P39897 1-210, R44A). Described as above. The note with it: protein: recombinant; tags: N-terminal His6 removed by TEV (pMCSG7); chain copies: 2; label: 5'-fluorescein.
Another series deals with MtrR G45A (Neisseria gonorrhoeae, UniProt P39897 1-210, G45A). Described as above. The note with it: protein: recombinant; tags: N-terminal His6 removed by TEV (pMCSG7); chain copies: 2; label: 5'-fluorescein.
In series [1] the target is T1, MtrR WT (Neisseria gonorrhoeae, UniProt P39897 1-210). The series can be described thus: fluorescence polarization; nonspecific binding only; FP: 20 mM Tris-HCl pH 7.5, 100 mM NaCl, 2.5% glycerol, 1 mM TCEP, 1 ug BSA, 1 ug poly(dI-dC), 1 nM 5'-fluorescein DNA; temperature not stated; MtrR concentration as dimer. The note with it: protein: recombinant; tags: N-terminal His6 removed by TEV (pMCSG7); chain copies: 2; label: 5'-fluorescein.

The next series has as its target MtrR H105Y (Neisseria gonorrhoeae, UniProt P39897 1-210, H105Y). Description: fluorescence polarization; FP: 20 mM Tris-HCl pH 7.5, 100 mM NaCl, 2.5% glycerol, 1 mM TCEP, 1 ug BSA, 1 ug poly(dI-dC), 1 nM 5'-fluorescein DNA; temperature not stated; MtrR concentration as dimer. The conditions noted are these: protein: recombinant; tags: N-terminal His6 removed by TEV (pMCSG7); chain copies: 2; label: 5'-fluorescein.

Series [2] deals with T1, MtrR WT. The description is as above. The conditions noted are these: protein: recombinant; tags: N-terminal His6 removed by TEV (pMCSG7); chain copies: 2; label: 5'-fluorescein.
Another series addresses MtrR H50A (Neisseria gonorrhoeae, UniProt P39897 1-210, H50A). The description is as above. The conditions noted are these: protein: recombinant; tags: N-terminal His6 removed by TEV (pMCSG7); chain copies: 2; label: 5'-fluorescein.
For the next series, the target named is MtrR W49F (Neisseria gonorrhoeae, UniProt P39897 1-210, W49F). The description is as above. The conditions noted are these: protein: recombinant; tags: N-terminal His6 removed by TEV (pMCSG7); chain copies: 2; label: 5'-fluorescein.
Another series concerns the target MtrR T11A (Neisseria gonorrhoeae, UniProt P39897 1-210, T11A). Described as above. The conditions noted are these: protein: recombinant; tags: N-terminal His6 removed by TEV (pMCSG7); chain copies: 2; label: 5'-fluorescein.
Another series has as its target MtrR T43S (Neisseria gonorrhoeae, UniProt P39897 1-210, T43S). The series is described as above. The note with it: protein: recombinant; tags: N-terminal His6 removed by TEV (pMCSG7); chain copies: 2; label: 5'-fluorescein.
For the next series, the target named is Semet-MtrR WT (Neisseria gonorrhoeae, UniProt P39897 1-210). Description: X-ray crystallography; 2.6 A; 200 mM calcium acetate; FP: 20 mM Tris-HCl pH 7.5, 100 mM NaCl, 2.5% glycerol, 1 mM TCEP, 1 ug BSA, 1 ug poly(dI-dC), 1 nM 5'-fluorescein DNA; temperature not stated; MtrR concentration as dimer. The note with it: protein: recombinant; tags: N-terminal His6 removed by TEV (pMCSG7); chain copies: 2.

The target of another series is MtrR D79N (Neisseria gonorrhoeae, UniProt P39897 1-210, D79N). Description: fluorescence polarization; FP: 20 mM Tris-HCl pH 7.5, 100 mM NaCl, 2.5% glycerol, 1 mM TCEP, 1 ug BSA, 1 ug poly(dI-dC), 1 nM 5'-fluorescein DNA; temperature not stated; MtrR concentration as dimer. The note with it: protein: recombinant; tags: N-terminal His6 removed by TEV (pMCSG7); chain copies: 2; label: 5'-fluorescein.

B1: emrAB 22mer (dsDNA)
DNA 1: AGTCGGCTATATCATTGCTGTC
DNA 2: GACAGCAATGATATAGCCGACT
Turning to B1, the binding result with MtrR A39T, with MtrR T43A, with MtrR G45D, with MtrR R44A, with MtrR G45A and with MtrR WT [1] was “no binding” throughout.

B2: GpY 27mer (dsDNA)
DNA 1: TACATAGCTGGTGTTATGTAAACGGCC
DNA 2: GGCCGTTTACATAACACCAGCTATGTA
For the molecule B2, the binding result in the series with MtrR A39T, with MtrR T43A, with MtrR G45D, with MtrR R44A, with MtrR G45A and in the series with MtrR WT [1] was “no binding” in each case. Further, in the series with MtrR H105Y, the Kd amounted to 860 ± 80 nM.

B3: rpoH 27mer (dsDNA)
DNA 1: TACATACGTGGTTGTATGTAAACGGCC
DNA 2: GGCCGTTTACATACAACCACGTATGTA
With B3, the Kd with MtrR WT [2] turned out to be 8 ± 1 nM; with MtrR H50A it was 376 ± 35 nM; with MtrR W49F it was 53 ± 3 nM; in the series with MtrR A39T it was 31 ± 3 nM; in the series with MtrR H105Y, 340 ± 57 nM; with MtrR T11A, 441 ± 37 nM. In addition, the equilibrium dissociation constant (Kd) with MtrR T43S is 860 ± 180 nM. In addition, the binding result with MtrR T43A, with MtrR G45D and with MtrR R44A was “no binding” throughout.

B4: rpoH 21mer (crystal) (dsDNA)
DNA 1: TACATACGTGGTTGTATGTAA
DNA 2: TTACATACAACCACGTATGTA
B4: the binding result in the series with Semet-MtrR WT is “binds”.

B5: mtrCDE 21mer (dsDNA)
DNA 1: TATCCGTGCAATCGTGTATGT
DNA 2: ACATACACGATTGCACGGATA
In the case of B5, the equilibrium dissociation constant (Kd) was determined as 50 ± 4 nM with MtrR WT [2]; 990 ± 100 nM with MtrR H50A; 380 ± 44 nM with MtrR W49F; 170 ± 11 nM with MtrR A39T; 640 ± 130 nM with MtrR H105Y; 1080 ± 93 nM in the series with MtrR T11A. For the same molecule, the binding result with MtrR D79N, with MtrR T43A, with MtrR G45D and with MtrR R44A was “no binding” each time.

B6: ApY 27mer (dsDNA)
DNA 1: TACAATCGTGGTTGATTGTAAACGGCC
DNA 2: GGCCGTTTACAATCAACCACGATTGTA
With B6, in the series with MtrR WT [2], the dissociation constant (Kd) was 293 ± 24 nM.

B7: mtrCDE 27mer (dsDNA)
DNA 1: TTTTTATCCGTGCAATCGTGTATGTAT
DNA 2: ATACATACACGATTGCACGGATAAAAA
Take B7: the Kd in the series with MtrR WT [2] came to 43 ± 4 nM.
